According to the supplement of paper PMC7125110:
± gives the standard error. For part of these data: This sample holds only a part of the variants without activity.

B1: glmS ribozyme (parent)
chain: AUAAAAGCGCCAGAACUACAGAAAUGUAGUUGACGAGGAGGAGGUUUAUCGAAUUUUCGGCGGAUGCCUCCAAA

Experiments:
Conditions in all cases: with glucosamine-6-phosphate
glucosamine-6-phosphate [1] = variants of: B1; experiment: kcat; higher = faster cleavage; RNA array
Outline: (§1)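 Barcoded glmS ribozyme variants on sequenced MiSeq chips were transcribed in situ by E. coli RNA polymerase and tracked through a hybridised Cy3 probe at 37 °C. Glucosamine-6-phosphate (40 μM to 10 mM) in HEPES/KCl/Mg(OAc)2 buffer was flowed in, and tiles were imaged over ~14 h. Signals were normalised to baseline and to non-cleaving reference variants; per-tile medians were fit to one- or two-exponential decays to give kobs. kcat and KM came from weighted Michaelis–Menten fits across concentrations.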

glucosamine-6-phosphate [2] = variants of: B1; experiment: KM; higher = weaker cofactor use; RNA array
Outline: as §1

glucosamine-6-phosphate [3] = variants of: B1; experiment: self-cleavage kobs at 40 uM GlcN6P; higher = faster cleavage; RNA array
Outline: as §1

glucosamine-6-phosphate [4] = variants of: B1; experiment: self-cleavage kobs at 640 uM GlcN6P; higher = faster cleavage; RNA array
Outline: as §1

glucosamine-6-phosphate [5] = variants of: B1; experiment: self-cleavage kobs at 2500 uM GlcN6P; higher = faster cleavage; RNA array
Outline: as §1

glucosamine-6-phosphate [6] = variants of: B1; experiment: self-cleavage kobs at 10000 uM GlcN6P; higher = faster cleavage; RNA array
Outline: as §1

glucosamine-6-phosphate [7] = variants of: B1; experiment: self-cleavage kobs at 160 uM GlcN6P; higher = faster cleavage; RNA array
Outline: as §1

Variant | kcat (glucosamine-6-phosphate [1]) [s⁻¹] | KM (glucosamine-6-phosphate [2]) [mM] | self-cleavage kobs at 40 uM GlcN6P (glucosamine-6-phosphate [3]) [s⁻¹] | self-cleavage kobs at 640 uM GlcN6P (glucosamine-6-phosphate [4]) [s⁻¹] | self-cleavage kobs at 2500 uM GlcN6P (glucosamine-6-phosphate [5]) [s⁻¹] | self-cleavage kobs at 10000 uM GlcN6P (glucosamine-6-phosphate [6]) [s⁻¹] | self-cleavage kobs at 160 uM GlcN6P (glucosamine-6-phosphate [7]) [s⁻¹]
A14G G29C U56A | 0.00138 ± 0.00036 | 1.96 ± 0.97 | 3.76e-05 ± 1.8e-05 | 0.000364 ± 8.4e-05 | 0.000647 ± 0.00014 | 0.00136 ± 0.00029 | –
A15C A39C | 0.00146 ± 0.00042 | 3.4 ± 1.7 | 2.08e-05 ± 6.5e-06 | 0.000171 ± 2.6e-05 | 0.000622 ± 9.2e-05 | 0.00112 ± 8.5e-05 | 0.000119 ± 1.5e-05
A14U U31G A39C | 0.000999 ± 0.00027 | 4.36 ± 1.7 | – | 0.000117 ± 2.6e-05 | 0.000373 ± 9.9e-05 | 0.000701 ± 0.00017 | 5.41e-05 ± 2e-05
A14C G40A | 0.00106 ± 0.00042 | – | 3.61e-05 ± 8.7e-06 | 0.000371 ± 5.8e-05 | 0.000306 ± 8.2e-05 | 0.00112 ± 0.00011 | 8.2e-05 ± 1.6e-05
G13C G29A | 0.000136 ± 1.6e-05 | 3.07 ± 0.91 | – | 3.33e-05 ± 1.2e-05 | 5.64e-05 ± 9.9e-06 | 0.000106 ± 1.2e-05 | –
A15C U30A A48U | 6.89e-05 ± 1.4e-05 | – | < 1e-05 | – | 4.08e-05 ± 1.4e-05 | 5.4e-05 ± 2e-05 | –
A14U C50U C58U G60U | < 1e-05 | – | < 1e-05 | < 1e-05 | – | – | –
A14U G38A | < 1e-05 | – | – | – | – | < 1e-05 | –
A14G A23C A64U | 0.000287 ± 3.5e-05 | 1.61 ± 0.46 | – | 8.79e-05 ± 2.3e-05 | 0.000151 ± 4.3e-05 | 0.00026 ± 5.2e-05 | –
A12U C58A | 0.00172 ± 0.00051 | – | – | 5.11e-05 ± 1.2e-05 | 0.000149 ± 2.6e-05 | 0.00051 ± 6.1e-05 | –
A14U C50A U54G G62A C68U | 3.85e-05 ± 1.7e-05 | – | – | 7.62e-05 ± 2.5e-05 | – | – | –
G13C U69C | 7.75e-05 ± 1.1e-05 | – | – | 7.04e-05 ± 2.6e-05 | 5.9e-05 ± 1.8e-05 | 8.36e-05 ± 1.7e-05 | –
A12U U49G | 0.00213 ± 0.00037 | 2.95 ± 0.78 | 3.38e-05 ± 7.4e-06 | 0.000495 ± 7.3e-05 | 0.000912 ± 0.00012 | 0.00167 ± 0.00018 | 9.35e-05 ± 1.5e-05
G13U A42G U45A | 0.00154 ± 0.00051 | – | – | 0.000169 ± 6.2e-05 | 0.000951 ± 0.00031 | 0.00104 ± 0.00021 | –
A14G C70U C71G | 0.000213 ± 6.9e-05 | – | – | 0.000185 ± 3.7e-05 | 0.00039 ± 8.8e-05 | 0.000168 ± 3.3e-05 | –
A14G U54C | 0.151 ± 0.0085 | 4.42 ± 0.27 | 0.00134 ± 0.00025 | 0.0185 ± 0.0064 | – | 0.105 ± 0.042 | 0.00536 ± 0.00096

Variant | kcat (glucosamine-6-phosphate [1]) [s⁻¹] | KM (glucosamine-6-phosphate [2]) [mM] | self-cleavage kobs at 40 uM GlcN6P (glucosamine-6-phosphate [3]) [s⁻¹] | self-cleavage kobs at 640 uM GlcN6P (glucosamine-6-phosphate [4]) [s⁻¹] | self-cleavage kobs at 2500 uM GlcN6P (glucosamine-6-phosphate [5]) [s⁻¹] | self-cleavage kobs at 10000 uM GlcN6P (glucosamine-6-phosphate [6]) [s⁻¹] | self-cleavage kobs at 160 uM GlcN6P (glucosamine-6-phosphate [7]) [s⁻¹]
A14U C67A | 0.00153 ± 0.00048 | 1.24 ± 0.54 | 6.24e-05 ± 7.4e-06 | 0.000406 ± 5.4e-05 | 0.00137 ± 0.00031 | 0.00155 ± 0.00023 | 0.000172 ± 2.5e-05
A14G G59U | 0.000386 ± 9.6e-05 | 9.33 ± 3.8 | – | 1.71e-05 ± 8e-06 | 9.37e-05 ± 1.5e-05 | 0.000196 ± 2.2e-05 | –
A12U G44U | 0.000852 ± 0.00012 | 1.29 ± 0.35 | 3.83e-05 ± 8.2e-06 | 0.000264 ± 4.7e-05 | 0.000645 ± 0.0001 | 0.000739 ± 8e-05 | 7.54e-05 ± 1.9e-05
G13A U45C | 3.07e-05 ± 4.9e-06 | – | – | – | – | 2.82e-05 ± 1.3e-05 | < 1e-05
A12G U65G | 0.000107 ± 1.4e-05 | 2.38 ± 0.96 | – | 3.32e-05 ± 9e-06 | 4.72e-05 ± 8.3e-06 | 8.79e-05 ± 7.1e-06 | –
A12U U69G | 0.000139 ± 1.8e-05 | 0.437 ± 0.2 | 2.68e-05 ± 8.8e-06 | 9.2e-05 ± 1e-05 | 0.000109 ± 1e-05 | 0.000145 ± 1.5e-05 | 2.7e-05 ± 8.8e-06
A12U G38A | < 1e-05 | – | – | – | – | – | –
A12U A52U | 0.00174 ± 0.00012 | 4.09 ± 0.49 | – | 0.000233 ± 3.8e-05 | 0.000681 ± 9.8e-05 | 0.00123 ± 0.00011 | 7.11e-05 ± 2e-05
A14G G63U | < 1e-05 | – | < 1e-05 | < 1e-05 | < 1e-05 | – | < 1e-05
A12G U47G | 0.000821 ± 0.00017 | 4.64 ± 1.6 | – | 0.000127 ± 1.6e-05 | 0.000266 ± 2.7e-05 | 0.000573 ± 4.8e-05 | 1.69e-05 ± 7.8e-06
A14U U31C C34G A42G U47A G51A C71A | < 1e-05 | – | – | – | – | < 1e-05 | –
G13U C16G | 0.000981 ± 0.00012 | 5.17 ± 0.95 | – | 0.000112 ± 1.7e-05 | 0.000305 ± 6e-05 | 0.000653 ± 0.0001 | –
G13U C16U | 0.00286 ± 0.00057 | 3.43 ± 1 | 4.83e-05 ± 1.1e-05 | 0.0004 ± 6.9e-05 | 0.00139 ± 0.00026 | 0.0021 ± 0.0003 | 0.000115 ± 2.9e-05
G13U C16A | 0.000283 ± 1.2e-05 | 4.34 ± 0.37 | – | 3.79e-05 ± 1.2e-05 | 0.0001 ± 2.2e-05 | 0.000198 ± 2.6e-05 | –
A15C A33C | 6.42e-05 ± 3.3e-06 | 1.9 ± 0.44 | – | – | 3.95e-05 ± 1.2e-05 | 5.37e-05 ± 6.3e-06 | –
